# Measured values taken from article doi:10.1101/2021.03.24.436879.
# Biological target: F-actin labeled at Cys-374 with fluorescein-5-maleimide (FMAL-actin) (rabbit) (UniProt P68135)
# Assay: FRET or BRET
Kd [nM],donor lifetime τDA of FMAL-actin with 20 μM TMR-C0-C2^Cys225 (τD = 4.2 ns) [ns],Substance
3000,–,TMR-C0-C2^Cys225 of human cMyBP-C phosphorylated by PKA (domain or fragment)
1000,2,single-cysteine C0-C2^Cys225 of human cMyBP-C labeled with tetramethylrhodamine (TMR-C0-C2^Cys225) (domain or fragment)
